What all share (assay): EMSA
The target in one data set is POS-1 TZF domain (Caenorhabditis elegans, UniProt G5EF15 80-180).
The target in the next data set is POS-1(ZFmut) TZF domain (Caenorhabditis elegans, UniProt G5EF15 80-180, F121N;F164N).
Another data set addresses T1, MEX-5 TZF domain (Caenorhabditis elegans, UniProt Q9XUB2 236-350).
T1 sequence: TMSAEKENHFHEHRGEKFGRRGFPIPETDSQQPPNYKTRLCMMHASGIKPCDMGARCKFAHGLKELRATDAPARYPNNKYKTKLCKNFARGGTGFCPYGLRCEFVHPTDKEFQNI

For two molecules, Kd results are on record in publication PMC5763555.

Sequence of POS-1(ZFmut) TZF domain (G5EF15 80-180 F121N/F164N): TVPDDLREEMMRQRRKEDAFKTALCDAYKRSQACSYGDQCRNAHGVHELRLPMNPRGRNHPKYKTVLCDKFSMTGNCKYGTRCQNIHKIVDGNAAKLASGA
Sequence of POS-1 TZF domain (G5EF15 80-180): as the sequence (G5EF15 80-180 F121N/F164N) above, with N42F, N85F counted along it

On to UUUUUCUUAUUCUAGACUAAUAUUGUAAGCU (ssRNA) [SCR+ (glp-1 3'UTR fragment)], for which the Kd – broadly, the constant that tells how readily two partners part at equilibrium – is 26.9 ± 1.8 nM in the data set with POS-1 TZF domain and more than 300 nM in the data set with POS-1(ZFmut) TZF domain.
The molecule GUGAUUAUUUAUUAUUUAUUUAUUAUUUAUUUAUUAG (ssRNA) [TNF-ARE] gave a Kd in the data set with MEX-5 TZF domain of 11 ± 2 nM.
